Measured values reported in PMC5405039, “Genome-wide identification of grain filling genes regulated by the OsSMF1 transcription factor in rice”.

T1: OsSMF1 (RISBZ1, OsbZIP58)-DsRed fusion (Oryza sativa cv. Ilmi, UniProt Q6ZLB0 1-436)
T1 sequence: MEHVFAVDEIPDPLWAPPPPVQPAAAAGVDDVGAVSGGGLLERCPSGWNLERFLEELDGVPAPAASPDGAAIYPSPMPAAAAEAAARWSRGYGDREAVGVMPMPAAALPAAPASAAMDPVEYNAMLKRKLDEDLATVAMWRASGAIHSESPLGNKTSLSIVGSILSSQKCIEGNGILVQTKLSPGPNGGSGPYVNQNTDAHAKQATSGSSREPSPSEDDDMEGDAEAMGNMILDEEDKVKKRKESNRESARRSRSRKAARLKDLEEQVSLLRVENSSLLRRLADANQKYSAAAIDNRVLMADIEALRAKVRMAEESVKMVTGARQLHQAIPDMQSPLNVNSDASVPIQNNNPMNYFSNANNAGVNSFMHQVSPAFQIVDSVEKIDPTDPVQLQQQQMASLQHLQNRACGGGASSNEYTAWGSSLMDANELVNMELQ

B1: GCN4 21-bp wild type (dsDNA)
DNA 1: GTTTGTCATGGCTGAGTCATG
DNA 2: CATGACTCAGCCATGACAAAC
B2: ACGT 21-bp wild type (dsDNA)
DNA 1: AAGCGCCACGTCAGCCAAAAC
DNA 2: GTTTTGGCTGACGTGGCGCTT
B3: ATGA 21-bp wild type (dsDNA)
DNA 1: CTGATTCGGATGACGGACGAA
DNA 2: TTCGTCCGTCATCCGAATCAG

Molecular target: T1, OsSMF1 (RISBZ1, OsbZIP58)-DsRed fusion
Assay: EMSA (SYBR Gold); 5 mM MgCl2; Kd EMSA: 10 mM Tris, 50 mM KCl, 1 mM DTT pH 7.5, 50 ng/ul poly(dI-dC), 2.5% glycerol, 0.05% NP-40, 5 mM MgCl2, 0.2 ug/ul OsSMF1, DNA 0-6 uM, 1 h room temperatur
Conditions: protein: recombinant; tags: DsRed fusion; Ni-NTA purified; chain copies: 2; SYBR Gold stain (Kd); 21 bp

Binder | Kd [nM]
B1 | 646
B2 | 335
B3 | 1120
